{"source": "patent US20230220115A1", "about": "(BIOMOLECULAR, published 2023)", "binders": {"B1": {"name": "B19c66 (one-arm antibody) (antibody, human IgG1, kappa)", "light": "not shown", "heavy": "not shown", "chain": "CPPCPAPELLGGPSVFLFPPKPKDTLMISRTPEVTCVVVDVSHEDPEVKFNWYVDGVEVHNAKTKPREEQYNSTYRVVSVLTVLHQDWLNGKEYKCKVSNKALPAPIEKTISKAKGQPREPQVYVYPPSRDELTKNQVSLTCLVKGFYPSDIAVEWESNGQPENNYKTTPPVLDSDGSFALVSKLTVDKSRWQQGNVFSCSVMHEALHNHYTQKSLSLSPGK"}}, "key": {"[1]": {"biological_target": "recombinant human Fc gamma receptor CD16a 158V (FcRγIIIa) (human, UniProt P08637 17-208)", "sequence (P08637 17-208 F176V limits assumed)": "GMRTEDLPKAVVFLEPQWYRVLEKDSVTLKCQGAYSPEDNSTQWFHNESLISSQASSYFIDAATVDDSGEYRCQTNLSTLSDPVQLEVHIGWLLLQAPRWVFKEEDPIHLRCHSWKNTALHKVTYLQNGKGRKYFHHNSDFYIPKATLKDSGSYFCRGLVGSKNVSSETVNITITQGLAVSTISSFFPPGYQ"}, "[2]": {"biological_target": "T1, CD19 (UniProt P15391 20-291)", "T1 sequence (looked up)": "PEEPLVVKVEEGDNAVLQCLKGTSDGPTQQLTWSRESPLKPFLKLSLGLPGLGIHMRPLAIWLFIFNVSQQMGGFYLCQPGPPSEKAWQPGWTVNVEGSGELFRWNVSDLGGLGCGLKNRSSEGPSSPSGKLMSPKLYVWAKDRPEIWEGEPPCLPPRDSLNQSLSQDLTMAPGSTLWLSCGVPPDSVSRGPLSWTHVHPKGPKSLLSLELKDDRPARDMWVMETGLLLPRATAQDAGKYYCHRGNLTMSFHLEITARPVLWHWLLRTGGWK"}}}
{"binder": "B1", "values": [{"measurement": "Kd", "setting": "[1]", "result": 234, "unit": "nM"}, {"measurement": "Kd", "setting": "[2]", "result": 21.8, "unit": "nM"}]}
